Test results: US20260216354A1, “ANTI-CMET ANTIBODY, ANTIBODY-DRUG CONJUGATE, AND PREPARATION METHOD THEREFOR AND USE THEREOF” (MEDILINK THERAPEUTICS (SUZHOU) CO., LTD., priority 2022, published 2026)

Legend:
cMet-ECD-hFc = biological target: T1, cMet-ECD-hFc (Homo sapiens, UniProt P08581); experiment: ELISA affinity of murine-derived antibodies to human MET-ECD-hFc; assay type: binding
T1 construct: made in house; host or cells: HEK293E
Protocol: (§1) 4 mice, all female, are selected from each of strains of CDT (Vital River), KM (Vital River), and Balb/c (Gempharmatech Co., Ltd.), and are enrolled into a group at about 6 weeks old. Immunization is performed using cMET-His and hcMET-mFc (Sichuan Sibowo Biotechnology Co., Ltd.), and after 2 times of booster immunization, serum titers are detected through ELISA. For a mouse with a higher ELISA protein titer, an affinity titer of tumor cells MKN-45 and a competition FACS titer of MKN45-HGF are detected through FACS. Finally, 1 mouse from each of CD1, KM, and Balb/c is selected, and the spleen and lymph node thereof are used to prepare cell suspensions for hybridoma fusion with SP2/0 mouse myeloma cells. ELISA preliminary screening is performed through human hMET-ECD-hFc antigen proteins, and after the preliminary screening, positive hybridomas are selected to be cloned. Hybridoma cells are cultured in a serum-free medium, and a collected monoclonal supernatant is purified through the ProA filler to obtain murine-derived antibodies. Affinities of the murine-derived antibodies to human MET-ECD-hFc and cyno MET-ECD-hFc proteins are detected through ELISA, and the affinity of the murine-derived antibodies to the MKN45 tumor cells and blocking of MKN45-HGF ligand competition is detected through FACS.

Cyno.cMet-ECD-hFc = experiment: ELISA affinity of murine-derived antibodies to cyno MET-ECD-hFc; assay type: binding
Protocol: as §1

MKN45 tumor cells = experiment: FACS affinity of murine-derived antibodies to MKN45 tumor cells; assay type: binding, human
Protocol: as §1

MKN45-HGF = biological target: T2, MKN45-HGF (Homo sapiens, UniProt P08581); experiment: FACS blocking of MKN45-HGF ligand competition (murine-derived antibodies); assay type: binding
T2 construct: MKN45 cells expressing c-MET antigens; endogenous in cells; host or cells: MKN45
T2 sequence (P08581 25-1390): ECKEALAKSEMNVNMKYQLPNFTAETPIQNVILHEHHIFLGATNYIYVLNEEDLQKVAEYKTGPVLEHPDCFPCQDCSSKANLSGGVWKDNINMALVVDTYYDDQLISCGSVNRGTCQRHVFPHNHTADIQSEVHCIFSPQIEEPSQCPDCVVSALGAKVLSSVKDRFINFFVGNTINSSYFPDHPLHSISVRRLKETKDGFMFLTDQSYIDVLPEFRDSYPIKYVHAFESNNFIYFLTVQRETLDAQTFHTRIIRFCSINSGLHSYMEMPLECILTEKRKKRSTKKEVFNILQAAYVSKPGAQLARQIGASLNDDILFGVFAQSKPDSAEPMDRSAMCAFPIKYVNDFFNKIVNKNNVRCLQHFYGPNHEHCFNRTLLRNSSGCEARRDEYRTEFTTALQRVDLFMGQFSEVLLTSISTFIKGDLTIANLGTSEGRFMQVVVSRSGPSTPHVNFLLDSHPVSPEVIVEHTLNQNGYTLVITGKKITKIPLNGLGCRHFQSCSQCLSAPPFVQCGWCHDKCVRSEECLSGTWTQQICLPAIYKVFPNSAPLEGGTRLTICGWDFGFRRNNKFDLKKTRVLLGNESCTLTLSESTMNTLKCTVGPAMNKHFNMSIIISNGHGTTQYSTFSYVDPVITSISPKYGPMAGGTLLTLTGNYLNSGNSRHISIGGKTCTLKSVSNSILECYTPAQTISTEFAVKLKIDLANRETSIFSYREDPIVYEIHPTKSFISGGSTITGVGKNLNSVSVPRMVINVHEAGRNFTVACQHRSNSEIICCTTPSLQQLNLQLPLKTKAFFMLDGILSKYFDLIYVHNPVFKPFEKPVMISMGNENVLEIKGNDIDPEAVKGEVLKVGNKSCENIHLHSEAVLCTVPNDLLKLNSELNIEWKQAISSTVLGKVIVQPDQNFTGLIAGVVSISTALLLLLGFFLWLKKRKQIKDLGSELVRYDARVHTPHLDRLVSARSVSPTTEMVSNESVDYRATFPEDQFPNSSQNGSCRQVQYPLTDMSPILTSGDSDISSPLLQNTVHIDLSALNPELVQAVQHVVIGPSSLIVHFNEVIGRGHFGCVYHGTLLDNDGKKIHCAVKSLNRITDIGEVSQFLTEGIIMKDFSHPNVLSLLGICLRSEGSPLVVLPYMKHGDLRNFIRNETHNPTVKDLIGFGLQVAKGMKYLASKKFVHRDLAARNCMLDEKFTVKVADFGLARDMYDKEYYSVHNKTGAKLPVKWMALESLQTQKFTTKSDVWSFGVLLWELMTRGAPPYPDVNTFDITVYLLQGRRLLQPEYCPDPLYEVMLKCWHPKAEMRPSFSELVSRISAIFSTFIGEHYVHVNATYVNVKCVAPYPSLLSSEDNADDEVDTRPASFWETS
Protocol: as §1

T1 sequence (P08581 25-932): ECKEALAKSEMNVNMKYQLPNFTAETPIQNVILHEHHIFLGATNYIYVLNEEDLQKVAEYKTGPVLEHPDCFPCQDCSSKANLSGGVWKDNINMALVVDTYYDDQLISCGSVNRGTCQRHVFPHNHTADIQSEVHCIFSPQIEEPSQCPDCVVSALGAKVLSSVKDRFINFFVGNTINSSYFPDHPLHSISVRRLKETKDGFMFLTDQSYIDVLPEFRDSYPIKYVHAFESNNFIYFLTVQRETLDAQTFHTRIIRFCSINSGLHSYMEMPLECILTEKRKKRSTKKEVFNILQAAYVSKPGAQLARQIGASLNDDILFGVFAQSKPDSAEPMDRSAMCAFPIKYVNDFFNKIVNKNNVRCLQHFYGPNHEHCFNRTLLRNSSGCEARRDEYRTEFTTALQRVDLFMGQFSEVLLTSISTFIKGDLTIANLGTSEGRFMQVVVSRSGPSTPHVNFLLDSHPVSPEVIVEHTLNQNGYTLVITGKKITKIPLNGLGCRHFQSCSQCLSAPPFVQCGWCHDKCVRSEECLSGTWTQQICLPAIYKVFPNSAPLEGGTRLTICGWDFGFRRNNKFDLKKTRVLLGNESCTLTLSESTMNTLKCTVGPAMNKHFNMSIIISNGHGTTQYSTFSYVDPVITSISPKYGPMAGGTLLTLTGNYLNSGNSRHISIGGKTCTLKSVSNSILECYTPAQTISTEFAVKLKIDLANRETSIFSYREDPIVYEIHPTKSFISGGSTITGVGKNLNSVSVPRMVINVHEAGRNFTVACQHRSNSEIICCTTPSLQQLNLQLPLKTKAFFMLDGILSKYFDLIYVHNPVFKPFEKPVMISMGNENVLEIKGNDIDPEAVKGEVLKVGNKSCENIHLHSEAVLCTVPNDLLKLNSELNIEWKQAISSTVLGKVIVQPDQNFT

| Molecule | cMet-ECD-hFc (EC50 = ng/ml) (cMet-ECD-hFc) | Cyno.cMet-ECD-hFc (EC50 = ng/ml) (Cyno.cMet-ECD-hFc) | MKN45 (EC50 = ng/ml) (MKN45 tumor cells) | MKN45-HGF competition (IC50 = ng/ml) (MKN45-HGF) |
| --- | --- | --- | --- | --- |
| 45A5G10: murine-derived anti-cMET monoclonal antibody; VL SEQ ID NO: 1, VH SEQ ID NO: 2 (antibody, V domains shown) VH: EVRLEESGGGFVQPGGSMKISCVASGFTFSNYWMNWVRQSPEKGLEWVAQIRLKSLNYATHYAESVKGRFTISRDDSRNSVYLQMNNLRAEDAGIYYCTEEGFAYWGRGTLVTVSA VL: IVMTQSPASLPVSLGQRATISCRASESVDDYGVSFVNWFQQKPGQPPKLLIYTASVQESGVPARFSGSGSGTDFSLNIHPLEEDDTAMYFCQQSKEIPPTFGGGTKLEIK | 6.387 ng/mL | 10.34 ng/mL | 41.25 ng/mL | 53.28 ng/mL |
| 41F5B2: murine-derived anti-cMET antibody of Table 1; probably clone 51D5B2 (VL SEQ ID NO: 7, VH SEQ ID NO: 8) (antibody, V domains shown) VH: EVRLEDSGGGFVQPGGSMKISCVASGFTFSNYWMNWVRQSPEKGLEWVAQIRLKSLNYATHYAESVKGRFTISRDDSRNSVYLQMNNLRAEDAGIYYCTEEGFAYWGRGTLVTVSA VL: IVMTQSPASLPVSLGQRATISCRASESVDDYGVSFVNWFQQKPGQPPKLLIYTASVQESGVPARFSGSGSGTDFRLNIHPLEEDDTAMYFCQQSKEIPPTFGGGTKLEIK | 4.807 ng/mL | – | 348.5 ng/mL | No activity |
| 44H10E8: murine-derived anti-cMET monoclonal antibody; VL SEQ ID NO: 5, VH SEQ ID NO: 6 (antibody, V domains shown) VH: QVHLQQSGAELARPGASVKMSCKASGYTFISYTIHWVKQSPGQGLEWIGYINPSSGYAKNNPKFQDKATLTADTSSTTAYIQLSSLTSEDSAVYYCTRPYGDFVDWYFDVWGTGTTVTVSS VL: NIMMTQSPSSLAVSAGEKVTMNCKSSQSVLYFSNQKNCLAWYQQKPGQSPKLLIYWASTRESGVPDRFTGSGSGTDFTLTISSVQADDLAVYYCQQYLSSLTFGAGTKLELK | 15.76 ng/mL | 25.72 ng/mL | 149.7 ng/mL | 88.57 ng/mL |
| 55A10G6: murine-derived anti-cMET monoclonal antibody; VL SEQ ID NO: 3, VH SEQ ID NO: 4 (antibody, V domains shown) VH: QIQLQQSGPELVKPGASVKISCKASGYTFTDYYLNWVRQRPGQGLEWIGWIFPGSGNTKYIEKFKGKATLTVDTSSSTAYMLLSSLTSEDSAVYFCAGGDYGGFTYWGQGTLVAVSA VL: DIQMTQSPPSLSASVGETVTITCGASENIYGALNWYQRKQGKSPQLLIYGATNLAAGMSSRFSGSGSGRQFSLKISSLHPDDVATYYCQNVLSEPLTFGAGTKLELK | 7.701 ng/mL | 14.9 ng/mL | 63.08 ng/mL | 31.28 ng/mL |
